This is an account of results in article PMC13486704 (2026).

Series [1] addresses HCMV protease (Human cytomegalovirus) (UniProt P16753). The note with it: cited from earlier work.
Series [2] deals with the molecule itself.

For the molecule HCMV protease (from UniProt P16753), in series [1], the Kd is 5.8 µM.

B1: HCMV protease (protein)
chain: MTMDEQQSQAVAPVYVGGFLARYDQSPDEAELLLPRDVVEHWLHAQGQGQPSLSVALPLNINHDDTAVVGHVAAMQSVRDGLFCLGCVTSPRFLEIVRRASEKSELVSRGPVSPLQPDKVVEFLSGSYAGLSLSSRRCDDVEAATSLSGSETTPFKHVALCSVGRRRGTLAVYGRDPEWVTQRFPDLTAADRDGLRAQWQRCGSTAVDASGDPFRSDSYGLLGNSVDALYIRERLPKLRYDKQLVGVTERESYVKA
For B1, the Kd in series [2] was approximately 70 µM.

In general, Kd refers to the constant that tells how readily two partners part at equilibrium.
